Several values for one entry are separate records, joined by “and”; a condition that tells them apart may be missing. Equal values may be shown once. Entries after “also recorded” stand apart in the source; their conditions may differ.
Key:
[1] = Stability of Zt/g4-DM1 at 37° C. by HIC (DAR); type: physicochemical
From the text: FIGS. 1A to 1C show the generation and characterization of anti-RON ADC Zt/g4-DM1. FIG. 1A: Schematic representation of Zt/g4-DM1 structure: Zt/g4 is a mouse mAb specific to the RON sema domain (18). DM1 was conjugated to Zt/g4 by non-reducible thioether linkage (SMCC) through lysine residues in the antibody molecule. FIG. 1B: HIC analysis of the number of DM1 conjugated to Zt/g4: Individual Zt/g4-DM1s with different numbers of DM1 (0 to 8) are marked as P0 to P8. FIG. 1C: Stability of Zt/g4-DM1. Zt/g4-DM1 was kept at 37° C. for 30 days. Samples analyzed at different time-points with the average DARs were shown;
Analysis of Zt/g4-DM1 conjugation and its stability: The conjugation of DM1 to Zt/g4 was verified by hydrophobic interaction chromatography (HIC) using a Varian Prostar 210 Quaternary HPLC system coupled with a TSK butyl-NPR 4.6×3.5 column (Tosoh Biosciences (Prussia, Pa.) (31). The average DARs were calculated from the integrated areas of the DAR species. This method also was used to determine the stability of Zt/g4-DM1 at 37° C.
The stability of Zt/g4-DM1 was determined by incubating the conjugates in vitro at 37° C. for 30 days. DAR changes were measured by HIC from different time-points.

[2] = tested on: RON-negative LoVo cells; experiment: Cell viability assay, LoVo; type: cell-based, human
Experimental: (§1) Cell viability and death assays: Cell viability 72 h after Zt/g4-DM1 treatment was determined by the MTT assay (22). Viable or dead cells were determined by the trypan blue exclusion assay. A total of 900 cells were counted from three individual wells to reach the percentages of dead cells.
The effect of Zt/g4-DM1 on cell viability was determined. […] The cells were treated with Zt/g4-DM1.

[3] = tested on: three CRC cell lines; experiment: Cell viability, three CRC cell lines together; conditions: 72 h after treatment
Experimental: as §1

[4] = tested on: SW620-derived tumors; experiment: SW620 mouse xenograft tumor model; type: in vivo; conditions: single dose 20 mg/kg
Experimental: Athymic nude mice (five mice per group) were subcutaneously inoculated with 5×10^6 HCT116, HT29, and SW620 cells followed by injection of 20 mg/kg Zt/g4-DM1 through tail vein. FIG. 4A: Tumor growth from HT29-luc2 or HCT116-luc2 cells was determined by measuring average photon intensity (left panel). SW620-derived tumor growth was monitored by measuring tumor volume (FIG. 4B) (right panel). FIG. 4C: Tumor images with photon emission or caliper measurement at day 16 are presented. The scale from minimal to maximal is set at 300 to 35,000 photons per second. The percentages of inhibition were calculated from the average photon emission (for HT29 and HCT116 cells) or tumor volume (for SW620 cells). […] The percentages of inhibition were calculated by a formula: (average tumor weight from Zt/g4-DM1 treated group/average tumor weight from control mice)×100%;
Mouse xenograft CRC model and anti-RON ADC treatment: All mice studies were approved by the institutional animal care committee. […] Bioluminescence from individual tumors was measured every four days using Caliper IVIS image system (PerkinElmer). Tumor volumes from SW620-derived tumors were measured according to a formula: V=pi/6×1.58×(length×width)^3/2 (18,33). […]
The inventors first determined the efficacy of a single dose of Zt/g4-DM1 at 20 mg/kg body weight on tumors derived from HCT116, HT29, and SW620 cells. […]

[5] = tested on: PDAC cell-mediated tumor growth; experiment: Mouse xenograft PDAC model; type: in vivo; conditions: mouse PDAC xenograft models
Experimental: Mouse xenograft PDAC model and anti-RON ADC treatment: Female athymic nude mice were injected with 5×106 L3.6PL, BxPC-3, or FG cells into the subcutaneous space of the right flank. Treatment began when all tumors have reached an average tumor volume of 100 to 200 mm3 The single-dose effect was studied by injection of 20 mg/kg Zt/g4-DM1. Tumor volumes were determined every four days using a previously described formula: V=pi/6×1.58×(length×width)3/2.

B1: Zt/g4-DM1: anti-RON mouse mAb Zt/g4 conjugated to maytansinoid DM1 via non-reducible thioether linkage (SMCC), DAR about 4:1 (conjugate)
VH: EVQLQQSGAELVKPGASVKLSCTTSGFNIIDTYIHWVNQKPDQGLEWIGRIDPADGNRKSDPKFQVKATITVDTSSNTAYLQLSSLTSGDTAVYYCARGYGNLNAMDSWGQGTSVTVSS
VL: DIQMNQSPSSLSASLGDTITITCHASQNINVWLNWYQQKPGNIPKLLIYKASNLHTGVPSRFSGSGSGTGFTLTISSLQPEDIATYYCQQGQSYPLTFGGGTKLEIK
[1]
  time stable at 37° C.: up to 30 days
[1]; 25.39% at day 0
  peak 5 share of conjugates at day 30: 20.06%
[1]; 39.05% at day 0
  peak 4 share of conjugates at day 30: 32.72%
[1]; day 30 vs day 0
  reduction in DAR after 30 days: 6.4% and 6.5%
[1]; in vitro, HIC
  average DAR at day 30: 3.484
[2]
  effect on cell viability: no effect
[3]
  reduction in cell viability: More than 80%
[4]; day 16
  inhibition in tumor volume: 82%
[4]; day 28
  inhibition rate by average tumor weight: 61.9%
[5]
  inhibition of PDAC xenograft tumor growth: highly effective in inhibiting PDAC cell-mediated tumor growth; also recorded: highly effective in inhibition of xenograft PDAC growth

From patent US20160311918A1, “Anti-Ron Monoclonal Antibodies as a Cytotoxic Drug Delivery System for Targeted Cancer Therapy” (TEXAS TECH UNIVERSITY SYSTEM, priority 2013, published 2016)
